Measured values: PMC1865072 (Nucleic Acids Research, 2007)
Where two headings read alike, the source gives them in different places.

How the values were obtained:
Test in all cases: native MS
[1] = target: 15N-labelled Kis antitoxin (Killing suppressor) of the parD operon of plasmid R1 (Escherichia coli (plasmid R1))
[2] = target: 15N-labelled Kis antitoxin (Killing suppressor) of the parD operon of plasmid R1 (Escherichia coli (plasmid R1)); remark: listed apart in the source
[3] = target: the molecule itself

15N-labelled Kis antitoxin (Killing suppressor) of the parD operon of plasmid R1 (Escherichia coli (plasmid R1)), sequence (P13975 whole entry): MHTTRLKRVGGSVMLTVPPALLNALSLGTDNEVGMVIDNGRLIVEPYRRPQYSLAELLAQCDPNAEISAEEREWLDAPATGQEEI

15N-labelled Kis antitoxin (Killing suppressor) of the parD operon of plasmid R1 (natural protein)
stoichiometry N (subunits in the oligomer) [1]: 2

Kid toxin (Killing determinant) of the parD operon of plasmid R1 (from UniProt P13976 24-133) (natural protein)
stoichiometry N (Kid per Kis (2:1)) [1]: 2
stoichiometry N (Kid per Kis (4:2)) [1]: 2
stoichiometry N (Kid per Kis (2:1)) [2]: 2
stoichiometry N (Kid per Kis (2:2)) [2]: 1
stoichiometry N (Kid per Kis (4:2)) [2]: 2
stoichiometry N (Kid per Kis (4:4)) [2]: 1
stoichiometry N (Kid per Kis (4:6), on the 30-bp parD DNA) [2]: 0.67

B1: Kid toxin (Killing determinant) of the parD operon of plasmid R1 (natural protein)
chain: MERGEIWLVSLDPTAGHEQQGTRPVLIVTPAAFNRVTRLPVVVPVTSGGNFARTAGFAVSLDGVGIRTTGVVRCDQPRTIDMKARGGKRLERVPETIMNEVLGRLSTILT
stoichiometry N [3]: 2 subunits in the oligomer
